Assay results taken from patent publication US5446130A, “Parathyroid hormone antagonists” (Mitsubishi Kasei Corporation, priority 1990, dated 1995).
Like-named read-outs stand apart in the source and are kept apart here. Where no end group is shown, it is not given here. The star is where a group is joined. Myristoyl = CCCCCCCCCCCCCC(=O)*

How the values were obtained:
hPTH (1-34) [1] = molecular target: T1, hPTH (1-34) (human, UniProt P01270); conditions: scale: ratio of IC50 to that of [Tyr34]-hPTH(3-34)-NH2
T1 peptide: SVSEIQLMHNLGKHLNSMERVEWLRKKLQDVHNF

[2] = test system: output of cAMP produced by 5×10^-9 M hPTH (1-34) in cultured mouse osteoblast MC3T3-E1; experiment: Determination of PTH antagonism: inhibition of cAMP output induced by hPTH (1-34) in cultured mouse osteoblast MC3T3-E1; format: cell-based; conditions: Table 4, 50% inhibition of cAMP output by 5×10^-9 M hPTH (1-34), ratio to control Compound No. 15 = 1
Description: PTH antagonism of the PTHrP derivatives (I) of the present invention was determined on the basis of the output of cAMP, using cultured mouse osteoblast MC3T3-E1.
To a multiwell-culture plate of 12-well were inoculated 1×10^5 cells/well of the cultured cells, and the plate was incubated at 37° C. under 95% air-5% CO2 atmosphere for 3 days after addition of α-modified MEM containing 10% semi-fetal bovine serum as a medium. Then, the medium was exchanged with α-modified MEM containing 1% bovine serum albumin and the cultured cells were incubated for 6 hours. The medium was replaced by α-modified MEM containing various concentrations of the compound of the present invention, 5×10^-9 M hPTH (1-34), 1% bovine serum albumin and 1 mM isobutylmethylxanthin, and the mixture was incubated for 1 hour. The medium was separated from the cells, and the medium was used as a sample for assaying cAMP. The cells were shaken with 90% n-propyl alcohol to extract cAMP according to Yamaguchi et al., J. Biol. Chem., 262, 7711-7718 (1987) for preparing another sample.
Assay of cAMP was performed using a commercially available cAMP-radioimmunoassay kit. […] Compound numbers in the tables correspond to those in Table 2.

hPTH (1-34) [3] = molecular target: T1, hPTH (1-34)
hPTH (1-34) [4] = molecular target: T1, hPTH (1-34); experiment: cell-based or functional assay
hPTH (1-34) [5] = molecular target: T1, hPTH (1-34); experiment: cell-based or functional assay

Molecule	IC50 Ratio: 50% inhibition of cAMP output, MC3T3-E1 mouse osteoblasts (hPTH (1-34) [4])	further results
[Tyr^34]-hPTH (3-34)-NH2 (from UniProt P01270) (peptide)		IC50 Ratio: 50% inhibition of cAMP output, MC3T3-E1 mouse osteoblasts (hPTH (1-34) [1]): 1
CC[C@H](C)[C@H](NC(=O)[C@H](CC(C)C)NC(=O)[C@H](Cc1c[nH]cn1)NC(=O)[C@H](Cc1c[nH]cn1)NC(=O)[C@H](CC(C)C)NC(=O)[C@H](Cc1ccccc1)NC(=O)[C@H](Cc1ccccc1)NC(=O)[C@H](CCCNC(=N)N)NC(=O)[C@H](CCCNC(=N)N)NC(=O)[C@H](CCCNC(=N)N)NC(=O)[C@H](CC(C)C)NC(=O)[C@H](CC(=O)O)NC(=O)[C@H](CCC(N)=O)NC(=O)[C@@H](NC(=O)[C@H](CO)NC(=O)[C@H](CCCCN)NC(=O)CNC(=O)[C@H](CCCCN)NC(=O)[C@H](CC(=O)O)NC(=O)[C@H](Cc1c[nH]cn1)NC(=O)[C@H](CCSC)NC(=O)[C@H](CC(C)C)NC(=O)[C@H](CCC(N)=O)NC(=O)[C@@H](N)CC(C)C)[C@@H](C)CC)C(=O)N[C@@H](C)C(=O)N[C@@H](CCC(=O)O)C(=O)N[C@H](C(=O)N[C@@H](Cc1c[nH]cn1)C(=O)N[C@H](C(=O)N[C@@H](C)C(N)=O)[C@@H](C)O)[C@@H](C)CC [Compound No. 9]		IC50 Ratio [2]: 1.02
CCCC[C@H](NC(=O)[C@H](CCC(N)=O)NC(=O)[C@@H](N)[C@@H](C)CC)C(=O)N[C@@H](CCSC)C(=O)N[C@@H](Cc1c[nH]cn1)C(=O)N[C@@H](CC(=O)O)C(=O)N[C@@H](CCCCN)C(=O)NCC(=O)N[C@@H](CCCCN)C(=O)N[C@@H](CO)C(=O)N[C@H](C(=O)N[C@@H](CCC(N)=O)C(=O)N[C@@H](CC(=O)O)C(=O)N[C@@H](CC(C)C)C(=O)N[C@@H](CCCNC(=N)N)C(=O)N[C@@H](CCCNC(=N)N)C(=O)N[C@@H](CCCNC(=N)N)C(=O)N[C@@H](Cc1ccccc1)C(=O)N[C@@H](Cc1ccccc1)C(=O)N[C@@H](CC(C)C)C(=O)N[C@@H](Cc1c[nH]cn1)C(=O)N[C@@H](Cc1c[nH]cn1)C(=O)N[C@@H](CC(C)C)C(=O)N[C@H](C(=O)N[C@@H](C)C(=O)N[C@@H](CCC(=O)O)C(=O)N[C@H](C(=O)N[C@@H](Cc1c[nH]cn1)C(=O)N[C@H](C(=O)N[C@@H](C)C(N)=O)[C@@H](C)O)[C@@H](C)CC)[C@@H](C)CC)[C@@H](C)CC [Compound No. 14]		IC50 Ratio [2]: 0.922
[Leu^11,D-Trp^12 ]-hPTHrP(7-34)-NH2 [(Leu11,D--Trp12)--hPTHrP(7-34)--NH2, reference compound]		IC50 Ratio [2]: 3.91
[Leu^11,D-Trp^12]-hPTHrP(7-34)-NH2 (from UniProt P12272) (peptide)		IC50 Ratio: 50% inhibition of cAMP output, MC3T3-E1 mouse osteoblasts (ratio of IC50 to that of Compound No. 15) (hPTH (1-34) [3]): 3.91
XLMHDKGKSIQDLRRRFFLHHLIAEIHTA (N-terminal myristoyl (Myr-Gln); C-terminal amide (Ala-NH2)) [Compound No. 10]	2.24 ratio of IC50 to that of Compound No. 15	
LQLMHDKGKSIQDLRRRFFLHHLIAEIHTA-NH2 [Compound No. 9]	1.02 ratio of IC50 to that of Compound No. 15	
IQLMHDKGKSIQDLRRRFFLHHLIAEIHTA-NH2 [[Ile^5, Met^8]-hPTHrP (5-34)-NH2]	1 ratio of IC50 to that of Compound No. 15	IC50 Ratio: 50% inhibition of cAMP output, MC3T3-E1 mouse osteoblasts (hPTH (1-34) [5]): 0.017 ratio of IC50 to that of [Tyr34]-hPTH(3-34)-NH2
IQLMHDKGKSIQDLRRRFFLRHLIAEIHTA-NH2 [Compound No. 19]	0.934 ratio of IC50 to that of Compound No. 15	
Ac-IQLMHDKGKSIQDLRRRFFLHHLIAEIHTA-NH2 [Compound No. 21]	0.934 ratio of IC50 to that of Compound No. 15	
IQLMHDKGKSIQDLRRRFFLHKLIAEIHTA-NH2 [Compound No. 20]	1.01 ratio of IC50 to that of Compound No. 15	
SEIQLMHALGKSIQDLRRRFFLHHLIAEIHTA-NH2 [Compound No. 1]		IC50 Ratio: 50% inhibition of cAMP output, MC3T3-E1 mouse osteoblasts (hPTH (1-34) [5]): 0.003 ratio of IC50 to that of [Tyr34]-hPTH(3-34)-NH2
IQXMHDKGKSIQDLRRRFFLHHLIAEIHTA (Nle (norleucine) as third residue (EEE); C-terminal amide (Ala-NH2)) [Compound No. 14]	0.922 ratio of IC50 to that of Compound No. 15	
IQLMHALGKSIQDLRRRFFLHHLIAEIHTA-NH2 [Compound No. 18]	1.97 ratio of IC50 to that of Compound No. 15	
FQLMHDKGKSIQDLRRRFFLHHLIAEIHTA-NH2 [Compound No. 8]		IC50 Ratio: 50% inhibition of cAMP output, MC3T3-E1 mouse osteoblasts (hPTH (1-34) [5]): 0.026 ratio of IC50 to that of [Tyr34]-hPTH(3-34)-NH2
SEIQLMHQLGKSIQDLRRRFFLHHLIAEIHTA-NH2 [Compound No. 2]		IC50 Ratio: 50% inhibition of cAMP output, MC3T3-E1 mouse osteoblasts (hPTH (1-34) [5]): 0.003 ratio of IC50 to that of [Tyr34]-hPTH(3-34)-NH2
Myristoyl-IQLMHDKGKSIQDLRRRFFLHHLIAEIHTA-NH2 (SMILES CCCCCCCCCCCCCC(=O)N[C@H](C(=O)N[C@@H](CCC(N)=O)C(=O)N[C@@H](CC(C)C)C(=O)N[C@@H](CCSC)C(=O)N[C@@H](Cc1c[nH]cn1)C(=O)N[C@@H](CC(=O)O)C(=O)N[C@@H](CCCCN)C(=O)NCC(=O)N[C@@H](CCCCN)C(=O)N[C@@H](CO)C(=O)N[C@H](C(=O)N[C@@H](CCC(N)=O)C(=O)N[C@@H](CC(=O)O)C(=O)N[C@@H](CC(C)C)C(=O)N[C@@H](CCCNC(=N)N)C(=O)N[C@@H](CCCNC(=N)N)C(=O)N[C@@H](CCCNC(=N)N)C(=O)N[C@@H](Cc1ccccc1)C(=O)N[C@@H](Cc1ccccc1)C(=O)N[C@@H](CC(C)C)C(=O)N[C@@H](Cc1c[nH]cn1)C(=O)N[C@@H](Cc1c[nH]cn1)C(=O)N[C@@H](CC(C)C)C(=O)N[C@H](C(=O)N[C@@H](C)C(=O)N[C@@H](CCC(=O)O)C(=O)N[C@H](C(=O)N[C@@H](Cc1c[nH]cn1)C(=O)N[C@H](C(=O)N[C@@H](C)C(N)=O)[C@@H](C)O)[C@@H](C)CC)[C@@H](C)CC)[C@@H](C)CC)[C@@H](C)CC) [Compound No. 22]	0.765 ratio of IC50 to that of Compound No. 15	
IQLMHAKGKSIQDLRRRFFLHHLIAEIHTA-NH2 [Compound No. 17]	1.17 ratio of IC50 to that of Compound No. 15	
